In US20180155413A1 (AstraZeneca / MedImmune, published 2018):
Where two headings read alike, the source gives them in different places.

How the values were obtained:
Assay in all cases: cell-based or functional assay
[1] = target: HA of A/Wilson Smith N/33 (H1N1) (influenza A virus, UniProt P03454 18-565)
[2] = target: HA of A/Beijing/262/95 (H1N1) (influenza A virus)
[3] = target: HA of A/Solomon Island/3/2006 (H1N1) (influenza A virus)
[4] = target: HA of A/California/07/2009 (H1N1) (influenza A virus)
[5] = target: HA of A/Hong Kong/8/68 (H3N2) (influenza A virus)
[6] = target: HA of A/Victoria/3/75 (H3N2) (influenza A virus)
[7] = target: HA of A/Shan dong/9/93 (H3N2) (influenza A virus)
[8] = target: HA of ca A/Panama/2007/99 (H3N2) (influenza A virus)
[9] = target: HA of ca B/Beijing/243/97 (victoria) (influenza B virus)
[10] = target: HA of B/Hong Kong/330/2001 (victoria) (influenza B virus)
[11] = target: HA of B/Malaysia/2506/2004 (victoria) (influenza B virus)
[12] = target: HA of B/Ohio/1/2005 (victoria) (influenza B virus)
[13] = target: HA of B/Yamanashi/166/98 (yamagata) (influenza B virus)
[14] = target: HA of B/Sichuan/379/99 (yamagata) (influenza B virus)
[15] = target: HA of B/Florida/4/2006 (yamagata) (influenza B virus)
[16] = target: HA of A/Puerto Rico/8/34 (H1N1) (influenza A virus, UniProt P03452 18-565)
Sequence of HA of A/Puerto Rico/8/34 (H1N1) (P03452 18-565 limits assumed): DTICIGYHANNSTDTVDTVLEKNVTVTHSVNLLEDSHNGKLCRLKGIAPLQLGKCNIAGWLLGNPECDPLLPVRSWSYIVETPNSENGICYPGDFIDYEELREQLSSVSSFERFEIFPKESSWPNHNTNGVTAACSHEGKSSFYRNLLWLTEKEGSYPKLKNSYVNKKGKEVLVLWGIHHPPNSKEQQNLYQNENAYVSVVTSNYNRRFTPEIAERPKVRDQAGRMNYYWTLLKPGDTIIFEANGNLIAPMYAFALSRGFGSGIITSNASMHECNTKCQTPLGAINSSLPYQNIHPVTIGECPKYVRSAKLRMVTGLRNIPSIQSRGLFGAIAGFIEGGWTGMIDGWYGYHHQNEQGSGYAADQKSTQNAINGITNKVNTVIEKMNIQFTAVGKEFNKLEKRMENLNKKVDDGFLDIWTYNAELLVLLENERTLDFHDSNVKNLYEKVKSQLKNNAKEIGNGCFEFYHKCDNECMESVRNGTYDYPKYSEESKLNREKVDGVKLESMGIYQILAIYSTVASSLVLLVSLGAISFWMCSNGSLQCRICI

[17] = target: HA of A/Beijing/262/95 (H1N1) (influenza A virus); remark: listed apart in the source
[18] = target: HA of A/Shenzhen/227/95 (H1N1) (influenza A virus)
[19] = target: HA of ca A/New Caledonia/20/99 (H1N1) (influenza A virus)
[20] = target: HA of ca A/South Dakota/6/2007 (H1N1) (influenza A virus)
[21] = target: HA of A/Brisbane/10/2010 (H1N1) (influenza A virus)
[22] = target: HA of A/New Hampshire/04/2010 (H1N1) (influenza A virus)
[23] = target: HA of A/Washington/24/2012 (H1N1) (influenza A virus)
[24] = target: HA of A/Bolivia/559/2013 (H1N1) (influenza A virus)
[25] = target: HA of ca A/Japan/57 (H2N2) (influenza A virus)
[26] = target: HA of ca A/mallard/Alberta/89/85 (H6N2) (influenza A virus)
[27] = target: HA of A/Hong Kong/8/68 (H3N2) (influenza A virus); remark: listed apart in the source
[28] = target: HA of A/Victoria/3/75 (H3N2) (influenza A virus); remark: listed apart in the source
[29] = target: HA of A/Shan dong/9/93 (H3N2) (influenza A virus); remark: listed apart in the source
[30] = target: HA of ca A/Wuhan/359/95 (H3N2) (influenza A virus)
[31] = target: HA of ca A/Sydney/5/97 (H3N2) (influenza A virus)
[32] = target: HA of ca A/Panama/2007/99 (H3N2) (influenza A virus); remark: listed apart in the source
[33] = target: HA of A/California/7/2004 (H3N2) (influenza A virus)
[34] = target: HA of A/Wisconsin/67/2005 (H3N2) (influenza A virus)
[35] = target: HA of A/Victoria/361/2011 (H3N2) (influenza A virus)
[36] = target: HA of A/Berlin/93/2011 (H3N2) (influenza A virus)
[37] = target: HA of A/Texas/50/2012 (H3N2) (influenza A virus)
[38] = target: HA of A/AmericanSomoa/4786/2013 (H3N2) (influenza A virus)
[39] = target: HA of A/Switzerland/9715293/2013 (H3N2) (influenza A virus)
[40] = target: HA of A/Palau/6759/2014 (H3N2) (influenza A virus)
[41] = target: HA of A/New Caledonia/71/2014 (H3N2) (influenza A virus)

Sequence of HA of A/Wilson Smith N/33 (H1N1) (P03454 18-565 limits assumed): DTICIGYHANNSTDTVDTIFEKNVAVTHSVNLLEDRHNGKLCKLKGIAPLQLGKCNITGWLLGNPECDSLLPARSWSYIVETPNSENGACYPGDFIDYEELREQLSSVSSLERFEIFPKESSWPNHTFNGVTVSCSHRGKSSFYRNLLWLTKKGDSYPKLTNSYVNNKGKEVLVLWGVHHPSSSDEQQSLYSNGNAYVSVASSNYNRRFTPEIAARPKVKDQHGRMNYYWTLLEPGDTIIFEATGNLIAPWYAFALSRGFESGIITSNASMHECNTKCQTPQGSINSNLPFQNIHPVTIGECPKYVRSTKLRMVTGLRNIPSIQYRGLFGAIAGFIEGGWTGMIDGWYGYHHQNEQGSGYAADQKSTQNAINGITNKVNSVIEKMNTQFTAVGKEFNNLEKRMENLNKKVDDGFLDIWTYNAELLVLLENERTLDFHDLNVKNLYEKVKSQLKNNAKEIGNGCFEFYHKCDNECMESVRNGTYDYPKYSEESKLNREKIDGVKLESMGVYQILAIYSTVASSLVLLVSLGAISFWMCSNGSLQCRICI

B1: GL20/39 BiS4 100/44 (bispecific antibody)
light: DIQMTQSPSSLSASVGDRVTITCRTSQSLSSYTHWYQQKPGKAPKLLIYAASSRGSGVPSRFSGSGSGTDFTLTISSLQPEDFATYYCQQSRTFGQGTKVEIKRTVAAPSVFIFPPSDEQLKSGTASVVCLLNNFYPREAKVQWKVDNALQSGNSQESVTEQDSKDSTYSLSSTLTLSKADYEKHKVYACEVTHQGLSSPVTKSFNRGEC
heavy: not shown
[1]
  Neutralization (IC50): 16.3 nM
[2]
  Neutralization (IC50): 11.9 nM
[3]
  Neutralization (IC50): 4.7 nM
[4]
  Neutralization (IC50): 20.6 nM
[5]
  Neutralization (IC50): 6 nM
[6]
  Neutralization (IC50): 15.9 nM
[7]
  Neutralization (IC50): 30.3 nM
[8]
  Neutralization (IC50): 37.3 nM
[9]
  Neutralization (IC50): 44.3 nM
[10]
  Neutralization (IC50): 75.8 nM
[11]
  Neutralization (IC50): 25.8 nM
[12]
  Neutralization (IC50): 16.5 nM
[13]
  Neutralization (IC50): 1.2 nM
[14]
  Neutralization (IC50): 7.8 nM
[15]
  Neutralization (IC50): 3.6 nM
[16]
  Neutralization (IC50): 18.6 nM
[17]
  Neutralization (IC50): 10.6 nM
[18]
  Neutralization (IC50): 7.9 nM
[19]
  Neutralization (IC50): 6.2 nM
[20]
  Neutralization (IC50): 6.8 nM
[21]
  Neutralization (IC50): 9.8 nM
[22]
  Neutralization (IC50): 0.4 nM
[23]
  Neutralization (IC50): 2.1 nM
[24]
  Neutralization (IC50): 0.9 nM
[25]
  Neutralization (IC50): 5.3 nM
[26]
  Neutralization (IC50): 6.5 nM
[27]
  Neutralization (IC50): 3.3 nM
[28]
  Neutralization (IC50): 5.2 nM
[29]
  Neutralization (IC50): 18.3 nM
[30]
  Neutralization (IC50): 16.7 nM
[31]
  Neutralization (IC50): 22.6 nM
[32]
  Neutralization (IC50): 28.5 nM
[33]
  Neutralization (IC50): 10.5 nM
[34]
  Neutralization (IC50): 10.3 nM
[35]
  Neutralization (IC50): 5.2 nM
[36]
  Neutralization (IC50): 1.1 nM
[37]
  Neutralization (IC50): 3.1 nM
[38]
  Neutralization (IC50): 0.8 nM
[39]
  Neutralization (IC50): 0.9 nM
[40]
  Neutralization (IC50): 4.6 nM
[41]
  Neutralization (IC50): 0.8 nM

B2: GL20 IgG (antibody, V domains shown)
VH: QVQLQQSGPGLVKPSQTLSLTCAISGDSVSSYNAVWNWIRQSPSRGLEWLGRTYYRSGWYNDYAESVKSRITINPDTSKNQFSLQLNSVTPEDTAVYYCARSGHITVFGVNVDAFDMWGQGTMVTVSS
VL: DIQMTQSPSSLSASVGDRVTITCRTSQSLSSYTHWYQQKPGKAPKLLIYAASSRGSGVPSRFSGSGSGTDFTLTISSLQPEDFATYYCQQSRTFGQGTKVEIK
[1]
  Neutralization (IC50): 13 nM
[2]
  Neutralization (IC50): 8.3 nM
[3]
  Neutralization (IC50): 4.4 nM
[4]
  Neutralization (IC50): 18.6 nM
[5]
  Neutralization (IC50): 7 nM
[6]
  Neutralization (IC50): 12.9 nM
[7]
  Neutralization (IC50): 19.2 nM
[8]
  Neutralization (IC50): 46.9 nM
[9]
  Neutralization (IC50): > 1000 nM
[10]
  Neutralization (IC50): > 1000 nM
[11]
  Neutralization (IC50): > 1000 nM
[12]
  Neutralization (IC50): > 1000 nM
[13]
  Neutralization (IC50): > 1000 nM
[14]
  Neutralization (IC50): > 1000 nM
[15]
  Neutralization (IC50): > 1000 nM
[16]
  Neutralization (IC50): 10 nM
[17]
  Neutralization (IC50): 10.8 nM
[18]
  Neutralization (IC50): 9.3 nM
[19]
  Neutralization (IC50): 4.2 nM
[20]
  Neutralization (IC50): 10.8 nM
[21]
  Neutralization (IC50): 10.5 nM
[22]
  Neutralization (IC50): 0.4 nM
[23]
  Neutralization (IC50): 1.4 nM
[24]
  Neutralization (IC50): 0.9 nM
[25]
  Neutralization (IC50): 5 nM
[26]
  Neutralization (IC50): 4.8 nM
[27]
  Neutralization (IC50): 3 nM
[28]
  Neutralization (IC50): 3 nM
[29]
  Neutralization (IC50): 21.8 nM
[30]
  Neutralization (IC50): 16.3 nM
[31]
  Neutralization (IC50): 32.1 nM
[32]
  Neutralization (IC50): 44.2 nM
[33]
  Neutralization (IC50): 14.2 nM
[34]
  Neutralization (IC50): 10.7 nM
[35]
  Neutralization (IC50): 5.7 nM
[36]
  Neutralization (IC50): 1.1 nM
[37]
  Neutralization (IC50): 4.8 nM
[38]
  Neutralization (IC50): 0.9 nM
[39]
  Neutralization (IC50): 0.3 nM
[40]
  Neutralization (IC50): 6.8 nM
[41]
  Neutralization (IC50): 1 nM
